According to the nanobody polyreactivity screen of Harvey et al. (2022):

Assay: yeast display, Sf9 membrane polyspecificity reagent, FACS + sequencing; frameworks hold sequencing errors
How it was run: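 Synthetic nanobody libraries on Saccharomyces cerevisiae BJ5465 were galactose-induced for 36–48 hours, stained 1 hour at 4 °C with 10% biotinylated, detergent-solubilized Sf9 membrane reagent and enriched on streptavidin microbeads. FACS then separated cells into low and high (top ~1%) gates by anti-HA (expression) and streptavidin (reagent binding) fluorescence. Genes were colony-PCR amplified, MiSeq 2 × 250 sequenced and CDR-length filtered. A clone's polyreactivity label is that of its gate of origin.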

Row | Sequence | polyreactivity (PSR sort gate)
1 | QVQLVESGGGLVQAGGSLRLSCAASGFIFYYNTMVWYRQAPGKERELVASITWSGDTTYYADSVKGRFTISRDNAKNTVYLQMNSLKPEDTAVYYCAAVHYYPYRRYDYWGQGTQVTVSS | low polyreactivity
2 | QVQLVESGGGLVQAGGSLRLSCAASGFIFYYYAMGWYRQAPGKERELVAAISKSGGSTYYADSVKGRFTISRDNAKKTVYLQMNSLIPEDTAVYYCAAVVTTWPYYGFGYWGQGTQVTVSS | high polyreactivity
3 | QVQLVESGGGLVQAGGSLRLSCAASGFIFYYYAMGWYRQAPGKERELVAAISSGDDTTYADSVKGRFTISRDNAKNTVYLKMNSLKPEDTAVYYCNSERSVKQQGPYGYWGQGTQVTVSS | low polyreactivity
4 | QVQLVESGGGLVQAGGSLRLSCAASGFIFYYYAMGWYRQAPGKERELVAAISWSGGSTYYADSVKGRFTISRDNAKNTVYLQMNSLKPEDTAVYDCAVSRDSYGGKGSFLYDYWGQGTQVTVSS | low polyreactivity
5 | QVQLVESGGGLVQAGGSLRLSCAASGFIFYYYAMGWYRQAPGKERELVAGITATGGSTYYEDSVKGRFTISRDNAKNTVYLQMNSLKPEDTAVYYCAAEHGRRATYTWWVIYDYWGQGTQVTVSS | low polyreactivity
6 | QVQLVESGGGLVQAGGSLRLSCAASGFIFYYYAMGWYRQAPGKERELVARISRVGSTYYADSVKGRFTISRDNAKNTVYLQINSLKPEDTAVYYCAKVSIARIKTRYNYWGQATQVTVSS | high polyreactivity
7 | QVQLVESGGGLVQAGGSLRLSCAASGFIGIYAMGWYRQAPGKERELVAAITTSGGRTYYADSVKGRFTISRDNAKNTVYLQMNSLKPEDTAVYYCAADYQAYTAEDKVIVWYDYWGQGTQVTVSS | low polyreactivity
8 | QVQLVESGGGLVQAGGSLRLSCAASGFIGSNTMGWYRQAPGKERELVAAISWSGGSTYYADSVKGRFTISRDNAKNTVYLQMNSLKPEDTAVYYSAARRNSRARRTFGYWGQGTQVTVSS | high polyreactivity
9 | QVQLVESGGGLVQAGGSLRLSCAASGFIIDANTMGWYRQAPGKERELVAAINESGGSTYYADSVKGRFTISRDNAKNTVYLQMNSLKPEDTAVYYCAADPTWDYGWSGYPYYYYWGQGTQVTVSS | high polyreactivity
10 | QVQLVESGGGLVQAGGSLRLSCAASGFIIEVNAMGWYRQAPGKERELVARIDWSGGSTYYADSVKWRFTISRDNAKNTVYLQMNILKPEYTEVYYCNAEWTYADPNEYGYWGQGTLVTVSS | low polyreactivity
11 | QVQLVESGGGLVQAGGSLRLSCAASGFIIFRYAMGWYRQAPGKERELDAAITRSGGSTYYADSVKGRFTISRDNAKNSVYLQMNCLKPEDTAVYYCNASRQCFTYARMDYWGQGTQVTVSS | high polyreactivity
12 | QVQLVESGGGLVQAGGSLRLSCAASGFIIGRNVMGWYRQAPGKERELVAAISYSGGSTYYADSVKGRFTISRDNAKNTVYLQMNSLKPEDTAVYYCNAEAWVSQDWCQWVAYDYWGQGTQVTVSS | high polyreactivity
13 | QVQLVESGGGLVQAGGSLRLSCAASGFIIGWYVMGWYRQAPGKERELVAAITWDSTSTYYADSVKGRFTISRDNAKNTVYLQMNSLKPEDTAVYYCAADRLDRYYYWGEGTQVTVSS | low polyreactivity
14 | QVQLVESGGGLVQAGGSLRLSCAASGFIIKFYAMGWYRPAPGKERELVAAISWRGGSTYYADSVKGRFTISRDIAKNTVYLQMNSLKPEDTAVYYCNKAGKARYWGRYNYWGQGTQVTVSS | high polyreactivity
15 | QVQLVESGGGLVQAGGSLRLSCAASGFIIRRYAMGWYRPAPGKERELVARISFRGGSTYYADSVKGRFTISRDNAKNTVYLQMNSLKPEATAVYYCNRDPLYSKVVDGDYWGHGTQVTVSS | high polyreactivity
16 | QVQLVESGGGLVQAGGSLRLSCAASGFIIRSYAMGWYRQAPVKERELVAAISRGSRTYYADSVKGRFTISRDNAKNTVYLQMNSLKPEDTAVYYCNADPNVPVETFDYWGQGTQVTVSS | high polyreactivity
17 | QVQLVESGGGLVQAGGSLRLSCAASGFIITSYAMGWYRQAPGKERELVAAIRRTGGTYYADSVKGRFTISRDNAKNTVYLQMNSLKPEDTAVYYCNTRLSYRNRGFDYWGQGTQVTVSS | high polyreactivity
18 | QVQLVESGGGLVQAGGSLRLSCAASGFIIYTYAMGWYRQAPGKERELVAAISRGGRTNYADSVKGRFTISRDNAKNTVYLQMNSLKPEDTAVYYCASSYSHRYDYWGQGSQVTVSS | high polyreactivity
19 | QVQLVESGGGLVQAGGSLRLSCAASGFIIYYYAMGWYRQAPGKERELVARISRRGGSTYYADSVKGRFTISRDNAKNTVYLQMNSLKPEDTAVYYCNAERRYSWYSQGDYWGQGTQVSVSS | high polyreactivity
20 | QVQLVESGGGLVQAGGSLRLSCAASGFILARNAMGWYRQAPGKERELVAAITRRGGSTYYADSVKGRFTISRDNAKNTVYLQMNSLKPEDTAVYYCAAAAGPIPQERYYWGQGTHVTVSS | high polyreactivity
21 | QVQLVESGGGLVQAGGSLRLSCAASGFILAWYAMGWYRQAPGKERELVAAISTSGDSTYYADSVKGRFTISRDNAKNTVYLQMNSLKPEDTAVYYCAAGTFKPYWRKFEYWGQGTQVTLSS | high polyreactivity
22 | QVQLVESGGGLVQAGGSLRLSCAASGFILDTYGMGWYRQAPGKERELVAAISQSDVSTYYADSVKGRFTISRDNAKNTVYLQMNSLKQEDTAVYYCAADRGGLRWFWQVVYDYWGQGTQVTVSS | low polyreactivity

Row | Sequence | polyreactivity (PSR sort gate)
23 | QVQLVESGGGLVQAGGSLRLSCAASGFILEAYAMGWYRQAPGKERELVAAITRRGTRTYYADSVKGRFTLSRDNAKNTVYLQMNSLKPEDTAVYYCNAESRSTWVAGYDYWGQGTQVTVSS | high polyreactivity
24 | QVQLVESGGGLVQAGGSLRLSCAASGFILEGYAMGWYRQAPGKERELVAAITRRGTRTYYADSVKGRFTISRDNAKNTVYLQMNSLKPEDTAVFYCNAESRSTWVAGYDYWGQGTQVTVSS | high polyreactivity
25 | QVQLVESGGGLVQAGGSLRLSCAASGFILGGYAMGWYRQAPGKERELVAAISWSSGSTYYADSVKGRFTISRDNAKTTVYLQLNSLKPEDTAVYYCAAVGAYDYWGQGTQVTVSS | low polyreactivity
26 | QVQLVESGGGLVQAGGSLRLSCAASGFILGLNAMGWYRRAPGKEREFVADISWSGDSTYYADSVKGRFTISRDNAKNTVYLQMNSLKPEDTAVYFCAADRYYNWGYYYWGQGTQVTVSS | low polyreactivity
27 | QVQLVESGGGLVQAGGSLRLSCAASGFILGQYTMGWYRQAPGKERELVASINGSDGITYYADSVKGRFTISRDNAKNTVYLQMNSLKPEDTAVYYCARPPRHYTFWGRRFYYWGQGTQVTVSS | low polyreactivity
28 | QVQLVESGGGLVQAGGSLRLSCAASGFILGTNAMGWYRQAPGKERELVAAISYSGGSTNYADSVKGRFTISRDNAKNTVYLQMYSLKPEDTPVYYCNRDPRKYGKLDYWGQGTQVTVSS | low polyreactivity
29 | QVQLVESGGGLVQAGGSLRLSCAASGFILKPYAMGWYRQAPWKERELVAAITYSGSSTYYADSVKGRFTISRDNAKNTVYLQMNSLKPEDTAVYYCAARDWSHPRRLFYWGQGTQVTVSS | high polyreactivity
30 | QVQLVESGGGLVQAGGSLRLSCAASGFILNAYTMGWYRQAPGKERELVATITINGGSTYYADSVKGRFTISRDNAKNTVYLQMNSLKPEDTPVYYCNADYWYKYDYWGQGTQVTVSS | low polyreactivity
31 | QVQLVESGGGLVQAGGSLRLSCAASGFILQYNAMGWYRQAPGKERELVAAITRSGVSTYYADSVKGRFTISRDNAKNTVYLQMNSLKPEDTAVYYCAATGGDRYEAYYYWGQGTQVTVSS | low polyreactivity
32 | QVQLVESGGGLVQAGGSLRLSCAASGFILRYNAMGWYRQAPGKERELVAAISYTGDRTYYADSVKGRFTISRDNAKNTVYLQMNSLKPEDTAVYYCNAGKGQRALVRIGSKLMYYWGQGTQVTVSS | high polyreactivity
33 | QVQLVESGGGLVQAGGSLRLSCAASGFILSDNAMGWYRQAPGKEREFVAAITSSGGSTHYADSVKGRFTISRDNAKNTVYLQMNSLKPEDTAVYYCAVGRPYWYDVWSFVSHYDYWGQGTQVTVSS | low polyreactivity
34 | QVQLVESGGGLVQAGGSLRLSCAASGFILSDNAMGWYRQAPGKEREFVAAITSSGGSTHYADSVKGRFTISRDNAKNTVYLQMNSLKPEDTAVYYCNTYPYLWGQGTQVTVSS | low polyreactivity
35 | QVQLVESGGGLVQAGGSLRLSCAASGFILSDYAMGWYRQAPGKERELVAGINSGGSTYYADSVKGRFTISRDNAKNTVYLQMNSLIPEDTAVYYCAAGVDYWWLVHFLYYYWGQGTQVTVSS | high polyreactivity
36 | QVQLVESGGGLVQAGGSLRLSCAASGFILSVYAMGWYRQAPGTETELVAAISKRGGSTNYADSVKGRFTISRDNAKDTVYLQMNSLKPEDTAVYYCAKARAGFLYDHWGQGTQVTVSS | high polyreactivity
37 | QVQLVESGGGLVQAGGSLRLSCAASGFILTQYAMGWYREAPGKERELVASISSSGSTYYADSVKGRFTISRDNAKNTVYLQMNSLKPEDTGVYYCATPGPAVHGTRGEYDYWGQGTQVTVSS | high polyreactivity
38 | QVQLVESGGGLVQAGGSLRLSCAASGFILTSYAMGWYRKAPGKERELVAAISSRGGRTYYADSVKGRFTISRDNEKNTVYLQMNSLKPEDTAVYYCNAGVYVVGDFDYWGLGTQVTVSS | high polyreactivity
39 | QVQLVESGGGLVQAGGSLRLSCAASGFILYFKAMGWYRQAHGKERELVAAITSDGGSTYYADSLKGRFTISRDNAKNTVYLQMNSLKPEDTAVYYCAADASTWYTEEYWGQGTQVTVSS | low polyreactivity
40 | QVQLVESGGGLVQAGGSLRLSCAASGFISDVYAMGWYRQAPGKERELVAVITWRGSTYYADSVKGRFTISRDNAKNTVYLQMNSLKPEDTAVYYCAAESQGDWAFDYWGQGTQVTVSS | low polyreactivity
41 | QVQLVESGGGLVQAGGSLRLSCAASGFISGKYAMGWYRQAPGKERELVASIRSGGSTNYADSVKGRFTISRDNAKNTVYLQMNSLKPEDTAVYYCAKLRGSRGVIYDYWGQGTQVTVSS | high polyreactivity
42 | QVQLVESGGGLVQAGGSLRLSCAASGFISGVNTMGWYSQAPGKERELVAAISSGGRTHYADSVKGRFTISRDNAKNTVYLQMNSLKPEDTAVYYCATRVRSTTRYYYWGLGTQVTVSS | high polyreactivity
43 | QVQLVESGGGLVQAGGSLRLSCAASGFISRAYAMGWYRQAPGKERELVAAISVRVGSTYYADSVKGRFTISRDNAKNTVYLQMNSLKPEDTAVYYCAALRPWPRYDYWGQGTQVTVSS | high polyreactivity
